The values below come from patent US11440969B2, “Use of human epididymis protein 4 (HE4) for assessing responsiveness of MUC 16-positive cancer treatment” (Genentech, Inc., priority 2016, dated 2022).

This test deals with platinum-resistant ovarian cancer. Description: Clinical activity of anti-MUC16-TDC (RECIST v1.1) in ovarian cancer patients. It counts as in vivo, human. Particulars: 1.0-5.6 mg/kg q3w. The procedure:
This Phase I, multicenter, open-label, dose escalation study was designed to identify the recommended Phase II dose (RP2D) of DMUC4064A (anti-MUC16-TDC) in platinum-resistant ovarian cancer patients and unresectable pancreatic cancer patients. The study employed a traditional 3+3 dose escalation design to determine the maximum tolerated dose (MTD), and the patients were administered intravenous (IV) DMUC4064A (Genentech Inc.) 1.0-5.6 mg/kg every three weeks (q3w) to evaluate the safety, tolerability, and pharmacokinetics of DMUC4064A.
Ovarian cancer patients had advanced epithelial ovarian, primary peritoneal, or fallopian tube cancer that progressed or relapsed within 6 months after the most recent treatment with a platinum-containing chemotherapy regimen. […] Progression or relapse from prior platinum-based chemotherapy was documented by RECIST v1.1. Patients were allowed ≤2 prior chemotherapy regimens.
Treatment (using anti-MUC16-TDC) response rate was estimated for patients with disease that was measurable by RECIST guidelines. Patients were identified as having a partial response (PR), stable disease (SD), or progressive disease (PD) as measured by RECIST v1.1. Objective response is defined as a complete or partial response, as determined by investigator assessment and confirmed by repeat assessments ≥4 weeks after initial documentation. Duration of objective response was defined as the time from the initial complete or partial response to the time of disease progression or death.

[1] abbreviates: end point of the clinical trial.

B1: DMUC4064A (conjugate, chains of the INN, looked up)
VH: EVQLVESGGGLVQPGGSLRLSCAASGYSITNDYAWNWVRQAPGKGLEWVGYISYSGYTTYNPSLKSRFTISRDTSKNTLYLQMNSLRAEDTAVYYCARWTSGLDYWGQGTLVTVSS
VL: DIQMTQSPSSLSASVGDRVTITCKASDLIHNWLAWYQQKPGKAPKLLIYGATSLETGVPSRFSGSGSGTDFTLTISSLQPEDFATYYCQQYWTTPFTFGQGTKVEIK
modifications: vedotin payload (MMAE)
In the case of B1, the “additional patients with a partial response at some point during the study” value was “six”. Further, the “patients with progressive disease” value (conclusion of the study) is “ten”. Under setting [1], the “patients who maintained stable disease” value is 23 and the “patients with a partial response to treatment” value is reported as “two”.
